Assay results: patent US20200085871A1
Values joined by “and” are separate entries in the source; they are usually repeats but may differ in a detail not shown here. Equal entries are not always repeated.

Biological target: mouse CD19 on B cells (mouse) (UniProt P25918)
Assay: cell-based or functional assay

UniProt P25918, sequence (P25918 19-547): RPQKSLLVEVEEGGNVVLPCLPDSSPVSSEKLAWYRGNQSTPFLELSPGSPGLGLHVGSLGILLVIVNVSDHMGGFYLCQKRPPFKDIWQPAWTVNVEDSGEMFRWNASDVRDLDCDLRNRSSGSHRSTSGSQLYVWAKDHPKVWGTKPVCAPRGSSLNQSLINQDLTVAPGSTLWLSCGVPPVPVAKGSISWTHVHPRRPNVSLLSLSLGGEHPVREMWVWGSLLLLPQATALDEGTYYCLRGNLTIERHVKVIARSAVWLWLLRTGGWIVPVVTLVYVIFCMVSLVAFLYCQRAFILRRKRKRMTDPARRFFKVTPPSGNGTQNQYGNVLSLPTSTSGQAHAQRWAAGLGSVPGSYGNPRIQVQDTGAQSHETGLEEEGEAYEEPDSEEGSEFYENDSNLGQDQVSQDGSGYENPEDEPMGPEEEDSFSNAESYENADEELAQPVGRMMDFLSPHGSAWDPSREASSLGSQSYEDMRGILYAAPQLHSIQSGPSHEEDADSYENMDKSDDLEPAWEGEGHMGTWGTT

For “anti-CD19-28Z.1-3 CAR (1D3 anti-mouse CD19 chimeric antigen receptor), expressed on transduced mouse CD8+ cytotoxic T cells (from UniProt P31041 115-218; P24161 52-164)”, the percent CD19+ B cells remaining in CAR T-treated MRL/lpr mice (flow cytometry) was 0.05% and 0.14%.
